{"source": "paper PMC2915670", "molecules": {"B1": {"name": "20-base ssRNA (ssRNA)", "RNA": "AAUUCUAAGGGCCAGCGAGA"}, "B2": {"name": "12-base ssRNA (ssRNA)", "RNA": "CGCGAAUAAUUU"}}, "key": {"[1]": {"molecular_target": "FMDV 2C(61–318) (foot-and-mouth disease virus, type [change])"}, "FMDV 2C(34-318)": {"molecular_target": "FMDV 2C(34-318) (Foot-and-mouth disease virus type O1K, UniProt P03305 1141-1425)", "sequence (P03305 1141-1425)": "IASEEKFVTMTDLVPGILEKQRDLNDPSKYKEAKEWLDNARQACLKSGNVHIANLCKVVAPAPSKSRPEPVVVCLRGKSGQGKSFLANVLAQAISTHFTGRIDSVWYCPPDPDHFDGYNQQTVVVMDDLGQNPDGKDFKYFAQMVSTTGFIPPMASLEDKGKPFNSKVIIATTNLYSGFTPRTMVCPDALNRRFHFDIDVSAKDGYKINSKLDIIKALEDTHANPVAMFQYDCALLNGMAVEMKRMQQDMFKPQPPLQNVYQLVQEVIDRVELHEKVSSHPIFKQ", "assay": "EMSA"}}, "data": [{"molecule": "FMDV 2C(61–318) (domain or fragment)", "values": [{"measurement": "ATPase activity (pmol Pi/pmol protein/min)", "setting": "[1]", "value": 0.46}]}, {"molecule": "B1", "values": [{"measurement": "Kd", "setting": "FMDV 2C(34-318)", "value": "~5", "unit": "µM"}]}, {"molecule": "B2", "values": [{"measurement": "binding result", "setting": "FMDV 2C(34-318)", "value": "binds"}]}]}
